In patent publication US12611443B2, “Methods and compositions related to therapeutic peptides for cancer therapy” (THE UNIVERSITY OF CHICAGO, priority 2018, dated 2026):
“Also recorded” adds a separate entry of the source.

B1: C1-2: hCD95 C-terminal peptide aa 221-331 mimicking ELANE cleavage at both sites; death domain containing fragment (protein)
chain: AINLSDVDLSKYITTIAGVMTLSQVKGFVRKNGVNEAKIDEIKNDNVQDTAEQKVQLLRNWHQLHGKKEAYDTLIKDLKKANLCTLAEKIQTIILKDITSDSENSNFRNEI
B2: ECP: eosinophil cationic protein, a pore-forming protein (protein)
chain: RPPQFTRAQWFAIQHISLNPPRCTIAMRAINNYRWRCKNQNTFLRTTFANVVNVCGNQSIRCPHNRTLNNCHRSRFRVPLLHCDLINPGAQNISNCTYADRPGRRFYVVACDNRDPRDSPRYPVVPVHLDTTI

What was measured:
[1] = tested on: MDA-MB-231 tumors; assay: In vivo testing of Tet-on C1-2 transduced MDA-MB-231 tumors; parameters: species or system nude mouse
Description: FIG. 7 In vivo testing MDA-MB-231 tumor regression post C1-2 induction. (A) Tumor weight. (B) Tumor cells (millions) count (post-ficoll gradient). (C) Percent immune cells in tumors (mouse CD45+) measurement by flow cytometry.
In Vivo testing. Mammary glands of a nude mouse model were injected with 2 million Tet-on C1-2 transduced MDA-MB-231 cells. Once tumors reach approximately 80 to 100 mm3 mice are feed either a doxycycline diet or are injected intraperitoneally with doxycycline (50 mg/ml) every 5 days to induce Tet-on system. Tumor growth is monitored. Tumors are isolated and digested on day 21 post doxycycline treatment and tumor weights are measured, tumor cell numbers are counted, and CD45+ cells are measured by flow cytometry.

[2] = tested on: MCF10A cells; assay: Doxycycline-inducible Tet-on expression of C1-2 in MCF10A cells; type: cell-based; settings: doxycycline 2 μg/mL
Description: (§1) FIG. 4 Inducible Expression System. Scheme of doxycycline inducible Tet-on system to express either C (aa. 157-335) or C1-2 (aa. 221-331). C1-2 (DD containing fragment) upon addition of doxycycline (both in vitro and in vivo).
(§2) FIG. 5 Confirmation of C1-2 expression and cancer cell selective killing. (A) Tet-on C or C1-2 transduced MDA-MB-231 cells were treated with 2 μg/mL doxycycline (2 μg/mL) for 24 h. Cell lysates were collected for western blot. Confirming the expression of C or C1-2 expression. (B) Tet-on C or C1-2 transduced MDA-MB-231 cells were treated with 0.2 or 2 μg/mL doxycycline for 72 h. Cell viability was measured by Calcein AM. […] (C) Tet-on C1-2 transduced MCF10A cells were treated with 2 μg/mL doxycycline. Cell viability was measured at various time points by Calcein AM.

[3] = tested on: MDA-MB-231 cells; assay: Doxycycline-inducible Tet-on expression of C or C1-2 in MDA-MB-231 cells; type: cell-based, human
Description: as §1, §2
FIG. 6 In vitro testing MDA-MB-231 cell death post C1-2 induction. (A) Various single colony of Tet-on C1-2 transduced MDA-MB-231 cells were treated with 2 μg/mL doxycycline (2 μg/mL) for 72 h. Cell viability was measured by Calcein AM. Different colonies have different susceptibility of death post C1-2 induction. (B) C1-2 expression of various single colony of Tet-on C1-2 transduced MDA-MB-231 cells post doxycycline treatment were measured by western blot (C), and the level at 24 h was correlated with % death (normalized by full length). […] (C) Immunoblot of C1-2 and full length (FL) CD95 expression for various colony.

[4] = tested on: cancer cells; assay: CD95 protein overexpression in cancer cells, viability in absence of ELANE (calcein-AM); type: cell-based, human; settings: for cancer cell death/toxicity on expression in the absence of ELANE: transient overexpression
Description: FIGS. 1A-1K. ELANE cleaves CD95 to selectively kill cancer cells. (A): Heatmap summary of ELANE's effects on survival, stress, and apoptosis pathways in cancer cells and healthy cells. (B-C): Cancer cells were treated with ELANE (100 nM) and CD95 cleavage was assessed by western blotting using anti-N-terminal (B) or anti-C-terminal antibodies (C). *, lower molecular weight CD95 fragment. (D): Cancer cells or non-cancer cells were transduced to overexpress CD95 proteins, and effects on ELANE-mediated apoptosis were quantified by ANXAS at 30 min. n=2/group. See FIG. 1I for transduction and CD95 over-expression. (E): Cleavage of recombinant human CD95 N-terminal (aa 1-173) or C-terminal (aa 212-335) proteins by ELANE was assessed by SDS-PAGE and Coomassie blue staining. (F): Bands from (E) were digested with trypsin and analyzed by mass spectrometry to identify putative ELANE cleavage sites (i.e., peptides with non-tryptic ends). Major non-tryptic peptides were quantified by ion chromatograms. (G): Schematic of ELANE cleavage sites in CD95. […] (H): Cleavage of recombinant peptides corresponding to aa 214-231 and aa 317-335 in CD95 by ELANE was monitored by mass spectrometry. (I): Cancer cells or non-cancer cells were treated with fluorescein-labeled ELANE for 10 min and uptake was visualized by immunofluorescence. (J): ELANE catalytic activity in cancer cell lysates following exposure to ELANE for 30 mins in the presence and absence of Dynasore (60 μM endocytosis inhibitor). Effect of Dynasore on cancer cell killing capability of ELANE (measured by calcein-AM). n=6/group. (K): Cancer cells or non-cancer cells were transduced to overexpress various CD95 proteins, and cell viability in the absence of ELANE was determined by calcein-AM. n=10/group. *, p<0.05 Student's t-test.
(§3) In vitro cell viability assays. […] Luminescence was measured using a Victor X3 luminometer (PerkinElmer).
CD95 overexpression studies. Polycistronic adenoviral vectors were prepared to express the human and mouse CD95 sequences followed by the Encephalomyocarditis virus (EMCV) internal ribosome entry site and dTomato sequence under the control of the cytomegalovirus (CMV) promoter (VectorBuilder). Human and murine cancer cells or normal or non-cancer cells were transduced to over-express full-length CD95, N-terminal CD95 (human: aa 1-209; mouse: aa 1-204), C-terminal CD95 (human: aa 212-335; mouse: aa 204-327), or C-terminal CD95 that mimicked ELANE cleavage at site 1 (human: aa 221-335), site 2 (human: aa 212-331), or both sites (aa 221-331). Cancer cells or normal or non-cancer cells were transduced with adenoviruses at an MOI of 50-250 depending on cell type, and expression of dTomato and CD95 (human: 558814; mouse, mouse: 565130, BD Biosciences) were confirmed by flow cytometry. A vector encoding GFP (Vector Builders) was used as a control.

[5] = biological target: T1, ELANE (Homo sapiens, UniProt P08246); assay: ELANE activity assay with ECP (chromogenic substrate); type: biochemical; settings: type II allosteric activator
T1 sequence (P08246 30-267): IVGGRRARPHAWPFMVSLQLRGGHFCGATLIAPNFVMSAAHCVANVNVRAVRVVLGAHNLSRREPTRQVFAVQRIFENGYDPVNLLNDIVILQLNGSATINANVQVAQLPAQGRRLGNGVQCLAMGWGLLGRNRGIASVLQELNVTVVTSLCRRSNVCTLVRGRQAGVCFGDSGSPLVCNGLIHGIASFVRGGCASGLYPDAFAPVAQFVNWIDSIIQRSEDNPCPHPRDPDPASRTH
Description: ELANE activity assays. Catalytic activity was measured using the chromogenic substrate N-Methoxysuccinyl-Ala-Ala-Pro-Val p-nitroanilide (Sigma, 100 μg/mL) according to manufacturer's protocol. Absorbance was measured at 405 nm using an accuSkan GO UV/Vis microplate spectrophotometer (ThermoFisher Scientific). For inactivation, ELANE was incubated with PMSF (1 mM, Sigma) or A1AT (42 nM, Athens Research & Technology) for 2 h. Residual PMSF was eliminated with a PD-10 desalting column (GE Healthcare Life). To monitor the effect of ECP on ELANE activity, ELANE (10 nM) was incubated with various doses of ECP (0-180 nM) at various substrate concentrations (0-1.7 mM).
Statistics. With the exception of proteomics studies, statistical significance was determined with the Student's two-tailed, unpaired t-test. Linear regression, Michaelis-Menten, and hyperbolic curve fittings were performed using Prism v.7 software.

[6] = tested on: Human monocyte-derived macrophages (HMDMs); assay: Cell viability of HMDMs treated with purified ELANE or ECP; type: cell-based
Description: Primary human blood-derived cells.
as §3

[7] = tested on: MDA-MB-231 cells; assay: Cell viability of MDA-MB-231 cells treated with purified ELANE or ECP; type: cell-based, human
Description: as §3

| Molecule | tumor growth after doxycycline induction ([1]; doxycycline IP or through the food) | CD45+ immune cells in tumors ([1]; flow cytometry) | cell death/apoptosis on doxycycline-induced expression [2] | selective killing of cancer cells by expression ([3]; FIG. 5A-5C) | cell death/apoptosis on doxycycline-induced expression ([3]; Tet-on MDA-MB-231, doxycycline 0.2 or 2 μg/mL, 72 h, Calcein AM) | correlation of expression level with extent of apoptosis/death ([3]; different colonies of MDA-MB-231 cells) | killing mechanism induced by expression ([4]; MDA-MB-231 cells) | cancer cell death/toxicity on expression in the absence of ELANE [4] | cancer cell death/toxicity on expression in the absence of ELANE ([4]; listed as aa. 221-331 of SEQ ID NO:1) | increase of ELANE catalytic turnover (kcat) [5] [fold] | cell viability, purified protein [6] | killing at concentration present in PMN media, alone ([7]; ECP 0.05 μg/mL) | effect on killing capability of ELANE ([7]; ELANE 0.25 μg/mL and ECP 0.05 μg/mL) | cell viability, purified protein ([7]; MDA-MB-231) |
| --- | --- | --- | --- | --- | --- | --- | --- | --- | --- | --- | --- | --- | --- | --- |
| B1 | induced MDA-MB-231 tumor regression; also recorded: lessened tumor growth | increased the number of CD45^+ immune cells in tumors | failed to induce apoptosis; also recorded: did not cause cell death | can selectively kill cancer cells | induction of cell death in MDA-MB-231 cells; also recorded: underwent apoptosis; also recorded: caused MDA-MB-231 cell death | significantly and positively correlated; also recorded: correlates with MDA-MB-231 cell death | induced the same killing mechanism as treating these cells with ELANE | toxic | induced cancer cell death in the absence of ELANE |  |  |  |  |  |
| B2 |  |  |  |  |  |  |  |  |  | ~12 | toxic to HMDMs | could not kill these cells alone | significantly enhanced the selective killing capability of ELANE | killed MDA-MB-231 cells only at doses that were also toxic to HMDMs |
